This is an account of results in patent US20140105905A1 (Amgen, published 2014).

The target in experiment [1] is T1, recombinant human Interleukin-8 (human, UniProt P10145 28-99).
T1 construct: also called rhIL-8; IL-8
T1 sequence (looked up): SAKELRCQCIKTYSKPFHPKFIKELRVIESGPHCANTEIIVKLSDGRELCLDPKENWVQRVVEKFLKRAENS
The experiment in a line: not named in this sentence (summary of the filing's own affinity results).

The target in experiment [2] is T1, recombinant human Interleukin-8. The experiment in a line: calculated from KinExA kon and Kd. An excerpt:
(§1) For measuring the association rate constant using KinExA, the same rhIL-8-coupled beads were used as the probe and the “Kinetics, Direct” method was used. The “Kinetics, Direct” experiments by KinExA are identical to KinExA equilibrium assays with respect to bead column height, antibody capture, antibody concentration and antibody detection. Briefly, the mAb was mixed with an amount of antigen that bound approximately 80% of the mAb in the equilibrium experiments and the free antibody present in the sample was probed repeatedly, pre-equilibrium. […] The volumes and flow rates of the antigen-mAb mixtures and the Cy5-labeled secondary antibody were varied depending upon the mAb tested. Data was analyzed utilizing the KinExA analysis software that comes with the KinExA 3000 instrument. This software graphically represents the decrease in binding signals over time, and fits the collected data points to an exact solution of the kinetic differential equations for binding. From this curve, an optimal solution for the kₒₙ is determined. The koff is indirectly calculated from solutions for the kₒₙ and Kd.
(§2) The on-rate measurement by KinExA is not limited by the mAb concentration used in the experiment. […] The concentration of mAb used for on-rate experiments was the same as those used in equilibrium binding experiments. An amount of IL-8 that bound 80% of the mAb in equilibrium binding experiments was mixed with the mAb. The amount of free mAb left in the mixture was measured in KinExA by flowing 1 ml of the mixture repeatedly through rhIL-8 coupled to NHS-activated Sepharose beads and detected using 1 ml of 2.0 μg/ml of Cy5-labeled goat anti-human IgG Fcγ fragment-specific secondary antibody. The kₒₙ was measured using the KinExA software by the “Kinetic, Direct” method and the 95% confidence intervals are given as kₒₙ range. The koff for the mAb was calculated from the measured kₒₙ and Kd of the respective mAb.

For experiment [3] the target is unchanged. Nature of the experiment: KinExA "Kinetics, Direct" method.
Description: as §1, §2
(In general: A kinetic exclusion assay measures how much of one partner remains free in solution.)

The target is the same in experiment [4]. The experiment in a line: KinExA equilibrium, optimized, n-curve analysis, mAb 1.3 and 13 pM. An excerpt: (§3) The mixture was drawn through the rhIL-8-coupled beads to accumulate unbound antibody. The captured anti-hIL-8 mAb is directly proportional to the remaining free binding sites and was detected using solutions containing Cy5-conjugated anti-human secondary antibody in sample buffer. The concentrations, volumes, and flow rates of the secondary antibody solutions were varied to optimize the signal to noise ratio in each experiment. The bound signals were converted into relative values as a proportion of control in the absence of rhIL-8. The equilibrium dissociation constant (Kd) was obtained from nonlinear regression analysis of the data using a one-site homogeneous binding model contained within the software [Blake et Al., Anal. Biochem. 272:123, 1999; Jones et al., Bioconjug Chem 13:408, 2002]. […]
(§4) A proportionate amount of free mAb present in the equilibrium mixture was measured in KinExA under optimized conditions. For example, for the mixtures containing the low concentration of mAb, 18-36 ml of the sample was flown through rhIL-8 coupled to NHS-activated Sepharose beads and detected using 1-2 ml of 2.0 μg/ml of Cy5-labeled goat anti-human IgG Fcγ fragment-specific secondary antibody. The Kd was calculated using KinExA software by using the “n-curve analysis” selection.

For experiment [5] the target is unchanged. The experiment in a line: KinExA equilibrium in solution, 36 h, mAb 25 pM. As to the method: (§5) The experiments with KinExA were performed using an automated flow immunoassay system, KinExA 3000 [Ohmura et al., Anal. Chem. 73:3392, 2001] in which rhIL-8-coupled beads served as the solid phase. […] Antigen/antibody complexes were incubated at RT for 36 h to 144 h to allow equilibrium to be reached. The mixture was drawn through the rhIL-8-coupled beads to accumulate unbound antibody. The captured anti-hIL-8 mAb is directly proportional to the remaining free binding sites and was detected using solutions containing Cy5-conjugated anti-human secondary antibody in sample buffer. The concentrations, volumes, and flow rates of the secondary antibody solutions were varied to optimize the signal to noise ratio in each experiment. The bound signals were converted into relative values as a proportion of control in the absence of rhIL-8. The equilibrium dissociation constant (Kd) was obtained from nonlinear regression analysis of the data using a one-site homogeneous binding model contained within the software [Blake et Al., Anal. Biochem. 272:123, 1999; Jones et al., Bioconjug Chem 13:408, 2002]. The software calculates the Kd and determines the 95% confidence interval by fitting the data points to a theoretical Kd curve. The 95% confidence interval is given as Kd low and Kd high.
A proportionate amount of free mAb present in the equilibrium mixture was measured by flowing 0.25 ml to 3 ml of the sample on rhIL-8 coupled to CNBr-activated Sepharose beads and detected using 1.0 ml of 1.7 μg/ml of Cy5-labeled goat anti-human IgG Fcγ fragment-specific secondary antibody. Each sample was run in triplicate. The Kd was calculated by the KinExA software and the 95% confidence interval is given as the Kd range.

Experiment [6] has the same target. Nature of the experiment: KinExA equilibrium, optimized, n-curve analysis, mAb 18 and 120 pM.
Description: as §3, §4

The target in experiment [7] is T2, IL-8 peptide ELRCQCIKTYSK (human).
T2 peptide: ELRCQCIKTYSK
The experiment in a line: overlapping IL-8 peptides on a membrane; column "Recognized epitope". The method, then: Briefly, overlapping IL-8 peptides, which were each two amino acids c-terminal to the previous peptide (as shown in FIG. 8) were prepared and attached to a membrane. Antibodies were then added and allowed to bind to the peptides.

The target in experiment [8] is T1, recombinant human Interleukin-8. Nature of the experiment: KinExA equilibrium in solution, 36 h, mAb 90 pM. As to the method:
as §5, with “The software calculates the Kd and determines the 95% confidence interval by fitting the data points to a theoretical Kd curve. The 95% confidence interval is given as Kd low and Kd high.” left out
(§6) A proportionate amount of free mAb present in the equilibrium mixture was measured by flowing 0.25 ml to 3 ml of the sample on rhIL-8 coupled to CNBr-activated Sepharose beads and detected using 1.0 ml of 1.7 μg/ml of Cy5-labeled goat anti-human IgG Fcγ fragment-specific secondary antibody. […]

Experiment [9] shares this target. Nature of the experiment: KinExA equilibrium, optimized, n-curve analysis, mAb 4.6 and 27 pM.
Description: as §3, §4

Experiment [10] has the same target. The experiment in a line: KinExA equilibrium in solution, 36 h, mAb 23 pM. As to the method: as §5, with “The software calculates the Kd and determines the 95% confidence interval by fitting the data points to a theoretical Kd curve. The 95% confidence interval is given as Kd low and Kd high.” left out
as §6

Experiment [11] has the same target. The experiment in a line: KinExA equilibrium in solution, 36 h, mAb 20 pM. The method, then:
as §5, with “The software calculates the Kd and determines the 95% confidence interval by fitting the data points to a theoretical Kd curve. The 95% confidence interval is given as Kd low and Kd high.” left out
as §6

The target is the same in experiment [12]. The experiment in a line: KinExA equilibrium, optimized, n-curve analysis, mAb 0.68, 2.0 and 13.7 pM.
Description: The equilibrium dissociation constant (Kd) was obtained from nonlinear regression analysis of the data using a one-site homogeneous binding model contained within the software [Blake et Al., Anal. Biochem. 272:123, 1999; Jones et al., Bioconjug Chem 13:408, 2002]. The software calculates the Kd and determines the 95% confidence interval by fitting the data points to a theoretical Kd curve. The 95% confidence interval is given as Kd low and Kd high.
as §4

Experiment [13] has the same target. The experiment in a line: KinExA equilibrium, low mAb concentration experiments analyzed in single curves. As to the method: as §3, with “Antigen/antibody complexes were incubated at RT for 36 h to 144 h to allow equilibrium to be reached. The mixture” for “The mixture”
A proportionate amount of free mAb present in the equilibrium mixture was measured in KinExA under optimized conditions. For example, for the mixtures containing the low concentration of mAb, 18-36 ml of the sample was flown through rhIL-8 coupled to NHS-activated Sepharose beads and detected using 1-2 ml of 2.0 μg/ml of Cy5-labeled goat anti-human IgG Fcγ fragment-specific secondary antibody. […]

B1: anti-hIL-8 mAb 861 (antibody, human IgG2, V domains shown)
VH: QVQLVESGGGVVQPGRSLRLSCAASGFTFSNYGMHWVRQAPGKGLEWVAVIYFEGSNKYNADSVKGRFTISRDNSKNTLYLQMNSLRAEDTAVYYCARSPYGDYLDYWGQGTLVTVSS
VL: EIVLTQSPGTLSLSPGERATLSCRASQTIDYNYLHWYQQKPGQAPRLLIYGTFIRATVIPDRFSGSGSGTDFTLTISRLEPEDIAVYYCQQFGRSPLTFGGGTKVEIK
notes: also called antibody number 861
Take B1: the Kd (commonly the free concentration of one partner at which half of the binding sites on the other are occupied at equilibrium, for simple one-to-one binding) in experiment [1] was around 2.89 pM; in [4], 3 pM; in experiment [5], 2.9 pM. Further, the off-rate constant (koff) (commonly a measure of how fast the partners let go of each other) in experiment [2] was 1.3e-05 s⁻¹. In addition, in experiment [3], the on-rate constant (kon) (in general, a measure of how fast the partners come together) came to 4.4e+06 M⁻¹ s⁻¹.

B2: anti-hIL-8 mAb 837 (antibody, human IgG2, V domains shown)
VH: QVQLQQWGAGLLKPSETLSLTCAVFGGTFSGYYWTWIRQPPGKGLEWIGEVIHHGSTNYSPSLKSRVTISADTSKSQFSLRLSSVTAADTAVYYCARGGAAAALDSWGQGTLVIVSS
VL: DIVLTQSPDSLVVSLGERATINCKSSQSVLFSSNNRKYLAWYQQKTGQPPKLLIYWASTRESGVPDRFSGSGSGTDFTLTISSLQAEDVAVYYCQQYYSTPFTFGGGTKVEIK
notes: also called clone 36C6; ABXha-IL-8
On to B2, for which the Kd is around 10.9 pM in experiment [1], 15.7 pM in experiment [6] and 11 pM in experiment [8]. Besides, in [2], the off-rate constant (koff) is 1.9e-05 s⁻¹. Besides, the on-rate (kon) in [3] is 1.1e+06 M⁻¹ s⁻¹. Moreover, in experiment [7], the binding result was “binds”.

B3: anti-hIL-8 mAb 809 (antibody, human IgG2, V domains shown)
VH: QVQLVESGGGVVQPGRSLRLSCAASGFTFSSYGMLWVRQAPGKGLEWVADISYDGSNKYYADSVKGRFTISRDNSKNTLFLQMNSLRAEDTAVYYCARDRIAVADYWGQGTLVTVSS
VL: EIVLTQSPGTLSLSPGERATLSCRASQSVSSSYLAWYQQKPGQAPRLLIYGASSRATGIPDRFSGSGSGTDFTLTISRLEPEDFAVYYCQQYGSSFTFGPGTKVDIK
notes: also called clone 6G11
With B3, the results for the Kd in [1], in experiment [9] and in [10] were around 2.23 pM, 3.29 pM and 2.2 pM, respectively. Also, the koff in [2] was 1.6e-05 s⁻¹. Besides, the kon in [3] stood at 4.8e+06 M⁻¹ s⁻¹. For the same molecule, the binding result in experiment [7] was “binds”.

B4: anti-hIL-8 mAb 928 (antibody, human IgG2, V domains shown)
VH: QVQLVESGGGVVQPGRSLRLSCAASGFTFSSYGMLWVRQAPGKGLEWVADISYDGSNKYYADSVKGRFTISRDNSKNTLYLQMNSLRAEDTAVFYCARDRIAVADYWGQGTLVTVSS
VL: EIVLTQSPGTLSLSPGERATLSCRASQSVSSSFLAWYQQKPGQAPRLLIYGASSRATGIPDRFSGSGSGTDFILTISRLEPEDFAVYYCQQYDSSFTFGPGTKVDIK
As to B4, the Kd in experiment [1] is around 0.06 pM; in experiment [11], 0.057 pM; in experiment [12], 0.613 pM; in experiment [13], 0.59 pM. Further, in experiment [2], the koff is 3.7e-06 s⁻¹. For the same molecule, the on-rate (kon) in experiment [3] is 6e+06 M⁻¹ s⁻¹. In experiment [7], the binding result is given as “binds”.
